{
  "source": "patent US20150167004",
  "about": "“OLIGONUCLEOTIDE INHIBITORS OF DNA […] AND THEIR USE IN TREATING DISEASES” (METHEOR THERAPEUTICS CORPORATION, published 2015)",
  "key": {"DNMT3A [1]": {"biological_target": "T1, DNMT3A (Homo sapiens, UniProt Q9Y6K1 Q9Y6K1:1-912)", "T1 sequence (Q9Y6K1 whole entry, one chain of several)": "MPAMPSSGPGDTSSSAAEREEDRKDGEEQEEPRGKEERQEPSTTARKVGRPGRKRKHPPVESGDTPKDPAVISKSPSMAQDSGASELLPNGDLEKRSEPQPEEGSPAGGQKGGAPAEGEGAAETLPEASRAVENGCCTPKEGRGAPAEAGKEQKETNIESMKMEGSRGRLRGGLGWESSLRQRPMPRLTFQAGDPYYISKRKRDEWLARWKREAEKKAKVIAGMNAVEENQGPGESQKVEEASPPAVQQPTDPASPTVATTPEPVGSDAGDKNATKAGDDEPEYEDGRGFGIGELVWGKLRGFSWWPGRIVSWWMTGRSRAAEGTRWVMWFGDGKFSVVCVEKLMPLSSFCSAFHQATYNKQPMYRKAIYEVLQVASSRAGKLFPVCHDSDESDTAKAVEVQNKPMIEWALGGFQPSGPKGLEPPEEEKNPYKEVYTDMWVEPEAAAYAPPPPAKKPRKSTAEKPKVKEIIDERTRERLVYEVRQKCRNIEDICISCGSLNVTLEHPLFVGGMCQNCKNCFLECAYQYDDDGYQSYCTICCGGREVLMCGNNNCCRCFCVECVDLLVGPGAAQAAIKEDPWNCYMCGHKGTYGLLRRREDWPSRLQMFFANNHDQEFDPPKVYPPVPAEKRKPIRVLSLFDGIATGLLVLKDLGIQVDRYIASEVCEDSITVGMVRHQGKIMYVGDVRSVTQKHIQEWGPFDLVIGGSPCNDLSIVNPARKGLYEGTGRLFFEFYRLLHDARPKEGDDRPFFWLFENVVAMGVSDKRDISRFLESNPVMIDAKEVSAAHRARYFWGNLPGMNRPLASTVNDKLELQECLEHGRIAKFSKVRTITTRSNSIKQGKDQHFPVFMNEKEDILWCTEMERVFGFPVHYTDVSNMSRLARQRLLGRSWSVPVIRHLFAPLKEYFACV", "experiment": "inhibition; tritiated methyl incorporation from SAM"}, "DNMT1 [2]": {"biological_target": "T2, DNMT1 (Homo sapiens, UniProt P26358 P26358:1-1616)", "T2 sequence (P26358 whole entry, one chain of several)": "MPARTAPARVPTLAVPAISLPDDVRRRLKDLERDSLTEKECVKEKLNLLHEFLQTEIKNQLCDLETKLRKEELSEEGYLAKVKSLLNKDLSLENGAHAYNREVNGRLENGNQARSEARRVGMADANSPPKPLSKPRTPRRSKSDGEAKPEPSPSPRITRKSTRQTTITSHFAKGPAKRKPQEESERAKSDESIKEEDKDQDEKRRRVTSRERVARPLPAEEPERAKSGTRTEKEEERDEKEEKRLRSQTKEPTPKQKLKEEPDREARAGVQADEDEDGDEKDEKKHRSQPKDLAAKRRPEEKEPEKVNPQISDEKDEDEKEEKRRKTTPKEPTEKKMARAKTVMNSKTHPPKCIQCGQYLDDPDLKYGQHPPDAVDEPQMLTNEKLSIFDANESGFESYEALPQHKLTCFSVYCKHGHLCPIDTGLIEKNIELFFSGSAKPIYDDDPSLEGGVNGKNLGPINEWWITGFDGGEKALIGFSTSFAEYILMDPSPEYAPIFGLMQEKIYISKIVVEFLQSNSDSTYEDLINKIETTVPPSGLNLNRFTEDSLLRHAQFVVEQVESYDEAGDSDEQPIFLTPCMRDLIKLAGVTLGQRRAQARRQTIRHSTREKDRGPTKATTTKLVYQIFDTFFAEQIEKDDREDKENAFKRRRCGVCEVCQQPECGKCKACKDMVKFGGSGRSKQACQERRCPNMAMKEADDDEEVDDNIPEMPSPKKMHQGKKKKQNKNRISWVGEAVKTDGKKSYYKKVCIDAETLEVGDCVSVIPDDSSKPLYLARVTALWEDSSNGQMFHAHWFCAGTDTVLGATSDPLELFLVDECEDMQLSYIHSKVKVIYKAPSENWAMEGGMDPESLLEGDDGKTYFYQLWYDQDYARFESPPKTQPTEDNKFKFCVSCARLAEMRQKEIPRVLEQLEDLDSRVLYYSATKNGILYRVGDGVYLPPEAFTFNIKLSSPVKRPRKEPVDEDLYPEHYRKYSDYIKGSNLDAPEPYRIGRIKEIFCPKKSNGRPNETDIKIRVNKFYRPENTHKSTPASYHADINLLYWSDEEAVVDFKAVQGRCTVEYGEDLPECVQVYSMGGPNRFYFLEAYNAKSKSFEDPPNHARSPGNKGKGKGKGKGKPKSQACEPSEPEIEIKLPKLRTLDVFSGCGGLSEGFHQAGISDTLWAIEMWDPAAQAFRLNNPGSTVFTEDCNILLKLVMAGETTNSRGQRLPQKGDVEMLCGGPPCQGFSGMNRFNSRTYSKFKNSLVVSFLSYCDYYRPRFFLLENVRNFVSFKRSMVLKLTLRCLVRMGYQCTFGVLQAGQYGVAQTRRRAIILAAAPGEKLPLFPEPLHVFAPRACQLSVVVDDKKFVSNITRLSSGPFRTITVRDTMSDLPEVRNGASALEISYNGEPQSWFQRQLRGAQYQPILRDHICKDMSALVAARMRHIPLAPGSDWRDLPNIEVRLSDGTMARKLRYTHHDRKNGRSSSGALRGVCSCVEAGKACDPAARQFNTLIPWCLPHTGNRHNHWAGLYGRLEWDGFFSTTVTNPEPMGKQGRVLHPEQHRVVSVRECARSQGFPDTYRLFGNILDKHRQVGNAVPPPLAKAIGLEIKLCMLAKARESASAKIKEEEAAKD", "experiment": "inhibition; tritiated methyl incorporation from SAM"}, "DNMT1 [3]": {"biological_target": "T2, DNMT1", "experiment": "inhibition; 25 nM DNMT1, poly(dI:dC) substrate, 1 uM SAM; table header cites SEQ 5 and 6 but oligo is MTC-424F/R; Table 5 gives 1.43 uM", "protocol": "(§1) DNA Methyltransferase 1 (DNMT1) was essentially assayed as described in Tollefsbol, T. O. and Hutchison III, C. A.: J. Biol. Chem. (1995), 270:18543-50 with the following modifications. Assay reaction was 5 μl volume, the DNA substrate was poly (dI:dC) 0.001 mg/ml and co-factor S-AdoMet at 1.0 μM; human DNMT1 was added at 25 nM. Reaction: S-adenosyl-L-[methyl-3H] methionine+DNA=S-adenosyl-L-homocysteine+DNA 5-[methyl-3H]-cytosine. S-AdoHCy was used as a positive control for the inhibition reaction."}, "DNMT3A [4]": {"biological_target": "T1, DNMT3A", "experiment": "inhibition; 25 nM DNMT3A, lambda DNA substrate, 1 uM SAM"}, "DNMT3B (DNMT3b1) [5]": {"biological_target": "T3, DNMT3B (DNMT3b1) (Homo sapiens, UniProt Q9UBC3 Q9UBC3:1-853)", "experiment": "inhibition; tritiated methyl incorporation from SAM; IC50 not estimable in Table 4"}, "DNMT1 [6]": {"biological_target": "T2, DNMT1", "experiment": "inhibition; 25 nM DNMT1, poly(dI:dC) substrate, 1 uM SAM; Table 5 gives 5.52 uM", "conditions": "hairpin", "protocol": "as §1"}, "DNMT3B (DNMT3b1) [7]": {"biological_target": "T3, DNMT3B (DNMT3b1)", "experiment": "inhibition; 25 nM DNMT3B, lambda DNA substrate, 1 uM SAM"}, "DNMT1 [8]": {"biological_target": "T2, DNMT1", "experiment": "inhibition; 25 nM DNMT1, poly(dI:dC) substrate, 1 uM SAM; Table 5 gives 348 nM", "conditions": "hairpin", "protocol": "as §1"}, "DNMT3B (DNMT3b1) [9]": {"biological_target": "T3, DNMT3B (DNMT3b1)", "experiment": "inhibition; 25 nM DNMT3B, lambda DNA substrate, 1 uM SAM; Table 5 gives 18.9 uM"}, "DNMT3A [10]": {"biological_target": "T1, DNMT3A", "experiment": "inhibition; 25 nM DNMT3A, lambda DNA substrate, 1 uM SAM; Table 5 gives 1.5 uM"}, "DNMT3B (DNMT3b1) [11]": {"biological_target": "T3, DNMT3B (DNMT3b1)", "experiment": "inhibition; tritiated methyl incorporation from SAM"}},
  "data": [
    {"binder": "MTC-429 (dsDNA, 5-aza-5,6-dihydro-dC at 8 of F strand; 5mC at 8 of R strand; phosphodiester [F strand: 8; R strand: 8]) DNA 1: GTACATGCGCTCCAGA DNA 2: TCTGGAGCGCATGTAC", "values": [
      {"measurement": "IC50", "setting": "DNMT3A [1]", "value": "> 50", "unit": "µM"},
      {"measurement": "IC50", "setting": "DNMT1 [2]", "value": 0.906, "unit": "µM"}
    ]},
    {"binder": "MTC-424 (dsDNA, 5-aza-5,6-dihydro-dC at 8 of F strand; phosphodiester [F strand: 8]) DNA 1: GTACATGCGCTCCAGA DNA 2: TCTGGAGCGCATGTAC", "values": [
      {"measurement": "IC50", "setting": "DNMT1 [3]", "value": 1.94, "unit": "µM"},
      {"measurement": "IC50", "setting": "DNMT3A [4]", "value": 10.2, "unit": "µM"},
      {"measurement": "IC50", "setting": "DNMT3B (DNMT3b1) [5]", "value": "> 100", "unit": "µM"}
    ]},
    {"binder": "CCTATGCGATCGAGTTTTCTCGATCGCATAGG (structured_DNA, 5mC at 7 and 11; deoxy-zebularine at 21 and 25; PS backbone [7,11,21,25])", "note": "[MTC-433]", "values": [
      {"measurement": "IC50", "setting": "DNMT1 [2]; hairpin", "value": 0.00422, "unit": "µM"}
    ]},
    {"binder": "CCTATGCGATCGAGTTTTCTCGATCGCATAGG (structured_DNA, 5-aza-5,6-dihydro-dC at 21 and 25; phosphodiester [21, 25 (5-aza-5,6-dihydro-dC)])", "note": "[MTC-422]", "values": [
      {"measurement": "IC50", "setting": "DNMT3A [4]", "value": 5.7, "unit": "µM"},
      {"measurement": "IC50", "setting": "DNMT1 [6]", "value": 1.43, "unit": "µM"},
      {"measurement": "IC50", "setting": "DNMT3B (DNMT3b1) [7]", "value": 21.3, "unit": "µM"}
    ]},
    {"binder": "CCTATGCGATCGAGTTTTCTCGATCGCATAGG (structured_DNA, zebularine (pyrimidin-2-one ribonucleoside) at 21 and 25; phosphodiester [21,25])", "note": "[MTC-423]", "values": [
      {"measurement": "IC50", "setting": "DNMT1 [8]", "value": 0.363, "unit": "µM"},
      {"measurement": "IC50", "setting": "DNMT3B (DNMT3b1) [9]", "value": 17.5, "unit": "µM"},
      {"measurement": "IC50", "setting": "DNMT3A [10]", "value": 1.6, "unit": "µM"}
    ]},
    {"binder": "CCTATGCGATCGAGTTTTCTCGATCGCATAGG (structured_DNA, deoxy-zebularine at 21 and 25; PS backbone [21,25])", "note": "[MTC-432]", "values": [
      {"measurement": "IC50", "setting": "DNMT1 [2]; hairpin", "value": 0.0083, "unit": "µM"}
    ]},
    {"binder": "CCTATGCGATCGAGTTTTCTCGATCGCATAGG (structured_DNA, 5mC at 7 and 11; 5-aza-5,6-dihydro-dC at 21 and 25; phosphodiester [7,11,21,25])", "note": "[MTC-425 (MTC-422m)]", "values": [
      {"measurement": "IC50", "setting": "DNMT3B (DNMT3b1) [11]", "value": "> 100", "unit": "µM"},
      {"measurement": "IC50", "setting": "DNMT3A [1]", "value": 6.69, "unit": "µM"},
      {"measurement": "IC50", "setting": "DNMT1 [2]; hairpin", "value": 0.504, "unit": "µM"}
    ]},
    {"binder": "CCTATGCGATCGAGTTTTCTCGATCGCATAGG (structured_DNA, 5mC at 7 and 11; zebularine (pyrimidin-2-one ribonucleoside) at 21 and 25; phosphodiester [7,11,21,25])", "note": "[MTC-427 (MTC-423m)]", "values": [
      {"measurement": "IC50", "setting": "DNMT3B (DNMT3b1) [11]", "value": 6.2, "unit": "µM"},
      {"measurement": "IC50", "setting": "DNMT3A [1]", "value": 1.52, "unit": "µM"},
      {"measurement": "IC50", "setting": "DNMT1 [2]; hairpin", "value": 0.295, "unit": "µM"}
    ]}
  ]
}
